{"source": "patent US20050079543A1", "about": "(ROCKEFELLER UNIVERSITY, published 2005)", "binders": {"B1": {"name": "Stat84, activated (from IFN-γ-treated C84 or Cmx cells) (other)", "chain": "SQWYELQQLDSKFLEQVHQLYDDSFPMEIRQYLAQWLEKQDWEHAANDVSFATIRFHDLLSQLDDQYSRFSLENNFLLQHNIRKSKRNLQDNFQEDPIQMSMIIYSCLKEERKILENAQRFNQAQSGNIQSTVMLDKQKELDSKVRNVKDKVMCIEHEIKSLEDLQDEYDFKCKTLQNREHETNGVAKSDQKQEQLLLKKMYLMLDNKRKEVVHKIIELLNVTELTQNALINDELVEWKRRQQSACIGGPPNACLDQLQNWFTIVAESLQQVRQQLKKLEELEQKYTYEHDPITKNKQVLWDRTFSLFQQLIQSSFVVERQPCMPTHPQRPLVLKTGVQFTVKLRLLVKLQELNYNLKVKVLFDKDVNERNTVKGFRKFNILGTHTKVMNMEESTNGSLAAEFRHLQLKEQKNAGTRTNEGPLIVTEELHSLSFETQLCQPGLVIDLETTSLPVVVISNVSQLPSGWASILWYNMLVAEPRNLSFFLTPPCARWAQLSEVLSWQFSSVTKRGLNVDQLNMLGEKLLGPNASPDGLIPWTRFCKENINDKNFPFWLWIESILELIKKHLLPLWNDGCIMGFISKERERALLKDQQPGTFLLRFSESSREGAITFTWVERSQNGGEPDFHAVEPYTKKELSAVTFPDIIRNYKVMAAENIPENPLKYLYPNIDKDHAFGKYYSRPKEAPEPMELDGPKGTGYIKTELISVSEV", "modifications": "activated by IFN-γ treatment of the cells (tyrosine phosphorylation; Tyr-701 is stated for Stat91)", "notes": "Expressed in U3A cells that lack Stat91/84; also called MNC-84 product"}}, "key": {"[1]": {"biological_target": "the molecule itself", "assay": "gel mobility shift with extracts of C84 cells", "protocol": "(§1) Mobility shift analysis was performed with extracts from these stable cell lines (FIG. 18B). Extracts of IFN-γ-treated C84 cells produced a faster migrating gel shift band than extracts of treated C91L cells. Most importantly, extracts from IFN-γ-treated Cmx cells expressing both Stat84 and Stat91L proteins formed an additional intermediate gel shift band. Anti-91, an antiserum against the C-terminal 38 amino acids of Stat91 (12) that are absent in Stat84, specifically removed the top two shift bands seen with the Cmx extracts. Anti-91, an antiserum against amino acids 609 to 716 (15) that recognizes both Stat91L and Stat84, proteins inhibited the binding of all three shift bands. Thus, the middle band formed by extracts of the Cmx cells is clearly identified as a heterodimer of Stat84 and Stat91L. We concluded that both Stat91 and Stat84 bind DNA as homodimers and, if present in the same cell, will form heterodimers."}, "[2]": {"biological_target": "T1, Stat91L, activated (from IFN-γ-treated C91L or Cmx cells) (human, UniProt P42224 2-750, activated by IFN-γ treatment of the cells; phosphotyrosine at 701 as stated for Stat91)", "T1 construct": "Expressed in U3A cells that lack Stat91/84; also called long form of Stat91; MNC-91L product; not shown: C-terminal tag of 34 amino acids encoded by the pMNC vector", "T1 sequence": "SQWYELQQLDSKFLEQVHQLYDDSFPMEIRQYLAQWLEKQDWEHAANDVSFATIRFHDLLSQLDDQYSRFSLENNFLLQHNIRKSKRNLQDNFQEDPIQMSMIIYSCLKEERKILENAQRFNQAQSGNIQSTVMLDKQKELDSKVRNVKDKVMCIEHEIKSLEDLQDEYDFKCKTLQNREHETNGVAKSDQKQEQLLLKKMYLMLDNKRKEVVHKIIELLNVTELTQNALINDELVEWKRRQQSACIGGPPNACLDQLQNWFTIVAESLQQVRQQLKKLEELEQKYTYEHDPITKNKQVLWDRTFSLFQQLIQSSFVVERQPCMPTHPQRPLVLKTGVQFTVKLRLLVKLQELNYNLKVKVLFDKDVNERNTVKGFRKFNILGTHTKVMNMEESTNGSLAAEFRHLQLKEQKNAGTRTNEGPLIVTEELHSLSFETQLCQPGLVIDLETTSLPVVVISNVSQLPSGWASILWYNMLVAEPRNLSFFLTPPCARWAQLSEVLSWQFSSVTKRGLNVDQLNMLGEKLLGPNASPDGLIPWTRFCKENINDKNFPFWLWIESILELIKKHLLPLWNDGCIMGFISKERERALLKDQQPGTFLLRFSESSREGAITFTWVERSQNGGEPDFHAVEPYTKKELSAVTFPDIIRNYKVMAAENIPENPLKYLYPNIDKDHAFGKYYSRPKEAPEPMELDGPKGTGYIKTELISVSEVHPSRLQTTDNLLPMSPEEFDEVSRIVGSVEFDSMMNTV", "assay": "gel mobility shift with extracts of cells that express both proteins, with antisera", "protocol": "as §1"}}}
{"binder": "B1", "values": [{"measurement": "binding result", "setting": "[1]", "value": "binds"}, {"measurement": "binding result", "setting": "[2]", "value": "binds"}]}
